The values below come from patent publication US20230365705A1 (DYNAMICURE BIOTECHNOLOGY, published 2023).

For test [1], the target named is T1, Human CD93 on cells (human CD93 expressing CHO cells; HUVEC, U937 and KG1a cells) (human, UniProt Q9NPY3 22-652).
T1 construct: whole, on cells; also called hCD93 expressing CHO cells; hCD93 CHO cells
T1 sequence (looked up): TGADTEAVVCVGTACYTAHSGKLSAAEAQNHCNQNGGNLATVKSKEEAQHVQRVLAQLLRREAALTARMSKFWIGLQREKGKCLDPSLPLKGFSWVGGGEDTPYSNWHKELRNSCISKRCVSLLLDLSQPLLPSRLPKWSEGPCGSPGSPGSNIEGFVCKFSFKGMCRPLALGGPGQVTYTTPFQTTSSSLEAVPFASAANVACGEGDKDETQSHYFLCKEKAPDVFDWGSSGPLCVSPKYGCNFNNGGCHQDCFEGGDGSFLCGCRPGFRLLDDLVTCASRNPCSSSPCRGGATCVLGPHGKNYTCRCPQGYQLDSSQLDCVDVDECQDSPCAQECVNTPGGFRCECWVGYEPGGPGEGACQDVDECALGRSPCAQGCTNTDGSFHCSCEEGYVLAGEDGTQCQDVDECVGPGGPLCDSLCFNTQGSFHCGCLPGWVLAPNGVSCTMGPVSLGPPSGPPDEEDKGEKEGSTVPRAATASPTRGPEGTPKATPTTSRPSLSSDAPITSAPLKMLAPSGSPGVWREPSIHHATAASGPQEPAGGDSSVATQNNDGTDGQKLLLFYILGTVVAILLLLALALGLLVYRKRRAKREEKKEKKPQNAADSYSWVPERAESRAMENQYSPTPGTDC
The test can be described thus: flow cytometry titration, HUVEC cells. As for the experimental part:
(§1) HUVEC cells were detached by incubation with TrypLE reagents (Thermo Fisher), which preserves the integrity of CD93 on the cell surface. Then the cells were incubated with serial diluted anti-CD93 antibodies for 30 minutes at 4° C. After washing by FACS buffer, the cells were incubated with Alexa Fluor 647 conjugated anti-human IgG (Jackson ImmunoResearch) for 30 minutes in 4° C. After washing by FACS buffer twice, the samples were acquired in NovoCyte Flow Cytometer and analyzed by NovoExpress software.

Test [2] addresses T1, Human CD93 on cells (human CD93 …). The test is described as follows: flow cytometry titration, HUVEC cells; antibody stored 2 weeks at 40 C. The protocol: as §1
For orientation: In flow cytometry, cells or beads pass a laser one at a time.

The target is the same in test [3]. The test is described as follows: flow cytometry titration, CHO-hCD93 cells; antibody stored 2 weeks at 40 C. The protocol:
Human CD93 expressing CHO cells were detached by incubation with TrypLE reagents (Thermo Fisher), which preserves the integrity of CD93 on the cell surface. Then the cells were incubated with serial diluted anti-CD93 antibodies for 30 minutes at 4° C. After washing by FACS buffer, the cells were incubated with Alexa Fluor 647 conjugated anti-human IgG (Jackson ImmunoResearch) for 30 minutes in 4° C. After washing by FACS buffer twice, the samples were acquired in NovoCyte Flow Cytometer and analyzed by NovoExpress software.

Test [4] addresses T2, Mouse CD93 on cells (mouse CD93 expressing CHO cells; mouse CD93 expressing HEK cells) (mouse, UniProt O89103 23-644).
T2 construct: whole, on cells; also called mCD93 HEK; CD93-HEK cells
T2 sequence (looked up): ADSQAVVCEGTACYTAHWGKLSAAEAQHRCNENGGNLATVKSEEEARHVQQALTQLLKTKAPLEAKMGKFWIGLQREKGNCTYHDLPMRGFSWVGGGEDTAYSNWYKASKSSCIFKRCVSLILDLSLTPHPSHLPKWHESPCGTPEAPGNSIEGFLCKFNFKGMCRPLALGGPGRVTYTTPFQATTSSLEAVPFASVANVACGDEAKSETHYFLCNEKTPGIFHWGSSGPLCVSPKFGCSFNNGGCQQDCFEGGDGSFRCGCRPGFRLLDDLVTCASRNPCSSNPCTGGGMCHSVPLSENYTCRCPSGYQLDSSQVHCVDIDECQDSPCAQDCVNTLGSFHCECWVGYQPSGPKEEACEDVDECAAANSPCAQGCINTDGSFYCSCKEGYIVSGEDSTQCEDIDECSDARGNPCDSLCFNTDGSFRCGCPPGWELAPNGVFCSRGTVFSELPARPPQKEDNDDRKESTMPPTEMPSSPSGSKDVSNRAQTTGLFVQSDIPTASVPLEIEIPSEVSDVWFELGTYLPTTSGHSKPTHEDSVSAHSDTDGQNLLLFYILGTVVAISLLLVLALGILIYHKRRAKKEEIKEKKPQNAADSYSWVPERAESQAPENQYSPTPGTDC
The test is described as follows: summary table; method and form of mouse CD93 not given.

The target in test [5] is T3, cynomolgus CD93 protein (made in-house) (cynomolgus, UniProt A0A2K5VH53 22-580).
T3 construct: Biotinylated in BLI; also called cyno CD93; cynoCD93
T3 sequence: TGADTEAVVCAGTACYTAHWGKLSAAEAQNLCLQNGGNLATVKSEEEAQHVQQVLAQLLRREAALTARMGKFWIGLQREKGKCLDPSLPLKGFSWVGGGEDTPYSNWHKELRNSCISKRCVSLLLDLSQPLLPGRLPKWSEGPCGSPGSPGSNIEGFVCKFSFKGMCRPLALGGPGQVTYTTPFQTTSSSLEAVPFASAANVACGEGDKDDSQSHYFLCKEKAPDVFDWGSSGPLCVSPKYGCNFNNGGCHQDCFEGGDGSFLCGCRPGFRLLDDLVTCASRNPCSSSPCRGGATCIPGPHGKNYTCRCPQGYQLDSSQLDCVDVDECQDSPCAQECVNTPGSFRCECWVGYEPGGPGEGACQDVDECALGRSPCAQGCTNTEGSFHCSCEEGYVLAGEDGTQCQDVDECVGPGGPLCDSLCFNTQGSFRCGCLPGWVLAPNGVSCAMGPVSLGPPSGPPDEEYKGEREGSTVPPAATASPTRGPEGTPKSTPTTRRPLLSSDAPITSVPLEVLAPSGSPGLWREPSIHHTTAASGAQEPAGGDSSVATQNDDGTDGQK
The test can be described thus: BLI (Octet QKe), biotinylated CD93 on streptavidin biosensors; table under the cynoCD93 panels. As for the experimental part:
The binding affinity of anti-CD93 antibodies were determined with bio-layer interferometry using Octet QKe (Fortebio). Human CD93 recombinant protein (Sino Biological Inc, Catalog #12589-H08H) or cynomolgus CD93 protein (made in-house) were biotinylated using EZ-LINK NHS-PEG4 biotin (Thermo Fisher Scientific). Streptavidin biosensors (Fortebio) were used to load biotinylated CD93 protein (300 seconds at 5 μg/ml). The baseline was stabilized for 60 seconds in a 1× kinetics buffer (Fortebio) before serially diluted anti-CD93 antibodies were allowed to associate for 300 seconds with captured protein. The sensors were dissociated in a 1× kinetics buffer for 600 seconds.
A general note: Biolayer interferometry detects binding as a change in optical thickness at a sensor tip.

B1: h7F3 (humanized 7F3, VH3+VL3) (antibody, human IgG1, V domains shown)
VH: QVQLVQSGAEVKKPGASVKVSCKASGYTFTDYEMHWVRQAPGQGLEWMGGIDPETGDTAYNQNFKGRVTMTTDTSTSTAYMELRSLTSDDTAVYYCTNYGNLYYYAMDYWGQGTSVTVSS
VL: EIVLTQSPSSLSASVGDRVTITCRASSSVSSSYLHWYQQKPGKAPKLLIYSTSNLAFGVPSRFSGSGSGTSYTFTISSLQPEDIATYYCQQYSGYPLTFGSGTKLEIK
notes: also called humanized 7F3-hIgG1
As usually defined, the EC50 is the concentration that produces a half-maximal response. A high value points to a need for much substance. As to B1, the EC50 turned out to be 1.34 nM in test [1] and 1.17 nM in test [2].

B2: h16E4 (humanized 16E4, VH4+VL6) (antibody, V domains shown)
VH: QVQLVQSGAEVKKPGASVKVSCKASGYTFTSYWMHWVRQAPGQGLEWMGEIDPSASYTYYNQKFKGRVTMTRDKSSSTVYMELSSLTSEDSAVYYCARSVYYGNKYFDVWGAGTTVTVSS
VL: DIQMTQSPSTLSASVGDRVTITCKASQSVDYAGDSYMNWYQQKPGKAPKLLIYAASNLESGVPSRFSGSGSGTEFTLTISSLQPDDFATYYCQQTNEDPRTFGGGTKLEIK
notes: Detected with anti-human IgG, so a human Fc
The molecule B2 returned a concentration giving a half-maximal response (EC50) in test [3] of 0.274 nM.

B3: 16E4 (hybridoma) (antibody, IgG2a, V domains shown)
VH: QVQLQQPGAELVKPGASVKLSCKASGYTFTSYWMHWVKQRPGQGLEWIGEIDPSASYTYYNQKFKGKATLTVDKSSSTAYMQLSSLTSEDSAVYYCARSVYYGNKYFDVWGAGTTVTVSS
VL: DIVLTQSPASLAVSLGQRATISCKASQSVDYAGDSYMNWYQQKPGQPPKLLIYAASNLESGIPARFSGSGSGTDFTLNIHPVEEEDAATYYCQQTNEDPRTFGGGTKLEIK
notes: also called 16E4 mAb; 16E4 mIgG2a
The Kd is the equilibrium constant for the complex coming apart. High values mean lower affinity, low ones higher affinity. In general, kon refers to the second-order rate constant of association. Regarding B3, the binding result in test [4] is on record as “no binding”. In test [5], this molecule came in with a Kd of 0.446 nM and a kon of 663000 M⁻¹ s⁻¹.
